This data set can be described thus: amyloid nucleation score (Sup35N fusion, yeast selection) (log enrichment); library NNK3; higher = more nucleation; inactive = no reads after selection. The method in brief: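 The nucleation score is a DiMSum log enrichment of output over input reads, centred on the mode score of non-aggregating sequences. Sequences under 100 input reads were excluded, and reads came from Illumina sequencing of plasmid inserts. Psi-negative yeast expressing Sup35N fused to peptides of 20 random codons were induced with 100 μM copper sulfate for 24 hours and grown 7 days at 30°C on medium lacking adenine and uracil. Random libraries had three technical output replicates.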

± gives the uncertainty stated by the source.

For YDKVFLPLGWHWPERPMGQT, the amyloid nucleation score entry is “inactive”. For DLSRDMTNVSCRKSGLWGSG, the amyloid nucleation score entry is “inactive”. Regarding KYGFAVRPFDTGSRMSHFCW, the amyloid nucleation score entry is “inactive”.

On to EKLCAHCSCPKVGVELFGCV, for which the amyloid nucleation score result was “inactive”. The result for FWCIYS reads “inactive”; that for LDMKPRQARTFFLNHGVLPA, 0.313 ± 0.78; that for VAYRTGSDG, “inactive”. For AVFTCCCPRK the value was “inactive”.

Take KSWYEFPKMLRNHRTYNQRL: the amyloid nucleation score result is “inactive”. The result for EMYGWINMIQWNLLCVSEII reads “inactive”.

With RNSKLSCNVDTKSCFVECMN, the amyloid nucleation score result was “inactive”. For SSIGCPYLSYDYCFPTMWIW the value was “inactive”; for NMETYLFANVMLFGKPGLLS, 1.01 ± 0.12. Take VTTSMCAIQD: the amyloid nucleation score entry is “inactive”.

In the case of YRIVLIFCEISNAMGVVQTS, the amyloid nucleation score entry is “inactive”.

As for SDSFSGPVKEPRYWGSQ, the amyloid nucleation score entry was “inactive”. In turn, FLTRIHFLCTCVRRNG gave an amyloid nucleation score of 1.37 ± 0.1. As to FVTAKQCVVCRQ, the amyloid nucleation score entry is “inactive”. Consider KEQDTQSIAQCNKTHRA, for which the amyloid nucleation score result was “inactive”. Consider QMRCLY, for which the amyloid nucleation score result was “inactive”. The result for GPSLVVNDLFGFCMVMYLND reads “inactive”; that for FTPLCSNVAGRNMEQYCS, “inactive”. On to FLVNPVCSMVSSYCSFPSPK, for which the amyloid nucleation score is 2.52 ± 0.062. As to CSRPVVLIKGLLWAFRRWAY, the amyloid nucleation score entry is “inactive”.

Regarding RRDCCGE, the amyloid nucleation score stood at 0.17 ± 0.75. For NIDFLLSYRTMSKFYPNIRM the value was “inactive”; for WMVYDSLILFHDVRRSYLPM, “inactive”. On to SFNVTVRGLSSSN, for which the amyloid nucleation score came to 0.027 ± 0.47. Consider LYLIFFCLWSSQLDAQLFVL, for which the amyloid nucleation score was -0.217 ± 0.93.

For FVTSVQVRFNMGFFAELFAV, the amyloid nucleation score entry is “inactive”. Turning to LLLIGINVKMFWSFRVWLCN, the amyloid nucleation score result was “inactive”.

NSYEEWSKWHFSNWSGFSGC: the amyloid nucleation score entry was “inactive”. For the substance NCELGYARPLGDAMLNRAWF, the amyloid nucleation score entry was “inactive”. In the case of DFSMSVNSA, the amyloid nucleation score result was “inactive”. For TQWYS the value was “inactive”; for YGMGSGTTMVCPKVAWG, “inactive”. For LIASGASIVFSRTESVRCNT the value was “inactive”; for TVICELRNMRYS, 1.81 ± 0.087; for GELRPLIVGDNLGLS, “inactive”. As for RRHAR, the amyloid nucleation score entry was “inactive”. Turning to LFCIY, the amyloid nucleation score entry was “inactive”. As to WTLRFLVKGSRCQFVAP, the amyloid nucleation score entry was “inactive”.

In the case of ICTVNMTNQSEC, the amyloid nucleation score result is “inactive”. As for SIRVINKRHCCSSGDWREDR, the amyloid nucleation score turned out to be 1.78 ± 0.081. Regarding ATFIFSDRQSHIHLYSNTQY, the amyloid nucleation score result was “inactive”. As for VYFLSVQLLYLFLSSALQRE, the amyloid nucleation score entry was “inactive”.

For the substance VKGQWR, the amyloid nucleation score result is “inactive”. On to PCECTNHLACDNIPMRYTE, for which the amyloid nucleation score entry is “inactive”. Regarding DVFSDSQVVENRV, the amyloid nucleation score entry is “inactive”. For EFFHNYVINMERYNCVLVRM the value was “inactive”; for YVTDMRCGVL, “inactive”. The substance AVIVVINNQTH came in with an amyloid nucleation score of 2.78 ± 0.077. With DHPYQRLIEWWLLCIYGSMY, the amyloid nucleation score result is “inactive”. In the case of VVCMDLCFLAGSSMSDLDGC, the amyloid nucleation score entry was “inactive”.

Consider FKLSMLA, for which the amyloid nucleation score result was “inactive”. For VDDIPYRFKTIKTTG the value was “inactive”; for WVDFFMFWGFAMNENKWFVH, “inactive”. For YFRANVRLKLEVMQRKKSPS the value was 2.28 ± 0.075; for ITLLCTLYYGQPTLGVDLVL, “inactive”; for SAMFTGNLYFDFVDPCYSGW, “inactive”. For the substance GGNSWITSMLAYWLTSAHNA, the amyloid nucleation score result is “inactive”. Take HRSISLRLYWNIHVKCFLTY: the amyloid nucleation score entry was “inactive”. For the substance RDISGMLYCYEGFYVF, the amyloid nucleation score entry is “inactive”. Regarding KSEFSRSHWESDD, the amyloid nucleation score result is “inactive”. With DFTYEL, the amyloid nucleation score entry is “inactive”.

Consider IIGSFC, for which the amyloid nucleation score result is “inactive”. Regarding LESFAGQAQWGCGSYQSFCL, the amyloid nucleation score result was “inactive”. On to TASPCFNSYLKNFVLGLPTT, for which the amyloid nucleation score entry is “inactive”.

As for SRVILL, the amyloid nucleation score entry was “inactive”. As to ISDDICSFVAHSAILFGRQM, the amyloid nucleation score result was “inactive”.

On to VCASIGCRTGD, for which the amyloid nucleation score entry is “inactive”.

In turn, LPWSINRCNRVENQLVYVWN came in with an amyloid nucleation score of 1.1 ± 0.14. For NLFYNEEDVLIQFVYQRTIW the value was “inactive”. As to MIRSVLLIQFNALEHSVRCR, the amyloid nucleation score result is “inactive”. For the substance VFLKTVAKQFCLANVKRSH, the amyloid nucleation score result is “inactive”.

DSMVCSHCWLFDEGSYVYGQ: the amyloid nucleation score result is “inactive”. The result for VNQVVM reads “inactive”. As for WCGGDYVLKNGKFALGVVGS, the amyloid nucleation score entry was “inactive”.

In turn, WLNKWTHGVIANFYVVSGHP showed an amyloid nucleation score of 1.64 ± 0.075. Turning to SKKSRSLNWFLLVNRTPDAG, the amyloid nucleation score entry is “inactive”. For the substance AILLNWNCVNFPCFEIYPYL, the amyloid nucleation score is 1.7 ± 0.063.

For EIFGSISG, the amyloid nucleation score result is “inactive”. For IYIRVRMDEFLMSVTTIARG, the amyloid nucleation score result was “inactive”. On to GYNNVESGNKYMLEDDFAFS, for which the amyloid nucleation score result was “inactive”. For FFNVMVS, the amyloid nucleation score result is “inactive”. On to LPSDSGYTGYHVWTLKSTCD, for which the amyloid nucleation score result is “inactive”. Turning to RVGISTYLVVSEE, the amyloid nucleation score entry is “inactive”. As to CHMCVVLAV, the amyloid nucleation score result was “inactive”. For INSSILGSCLWWFLFCF the value was 1.2 ± 0.12; for KNGKWRGISSYRNRRFNTGI, “inactive”; for AFFVVTIFVVNTSCDNVLVS, 1.03 ± 0.11. The result for NADCAYCLLFNLRWSVCVRT reads -0.067 ± 0.36. Turning to MTRVNFYFLFFELLLMAFGV, the amyloid nucleation score entry is “inactive”. In the case of KFFQIIRASVF, the amyloid nucleation score result is “inactive”. For LYEAVDRGLSRR the value was “inactive”; for VWDNMMIFLYWFFLKSCSHG, “inactive”.

The substance FCRRSGSFVLDMTYWGMYRP showed an amyloid nucleation score of 0.156 ± 0.32. With FVANISFWFSVFNRVYESYT, the amyloid nucleation score was 0.841 ± 0.1. For the substance EDAFWYYVEWPYKWLQGGHS, the amyloid nucleation score entry was “inactive”.

As for YLSIGSVSMSAGASANDAQ, the amyloid nucleation score entry was “inactive”. Turning to VQYFPISGDARGRQLQRI, the amyloid nucleation score result is “inactive”. For YRSTLEKVSVGMMENICVGI the value was 0.028 ± 0.2. Consider TQNNNGRVETPGASTPKHPC, for which the amyloid nucleation score entry is “inactive”.

For MGVVRFTYCDIKV, the amyloid nucleation score entry was “inactive”. As for PLSLGFVIGHHVSIPGSSTD, the amyloid nucleation score result was “inactive”. Regarding LPGSDRQFPREAVHYSRMRG, the amyloid nucleation score worked out at 0.714 ± 0.32. On to MFSSLV, for which the amyloid nucleation score result is “inactive”. For VISCCP the value was “inactive”; for NHKPLWFFDVATTGTGLNR, “inactive”. For FCEDSRMSYKFYVSCIFAHS the value was 0.636 ± 0.14; for YIYTFYSVSY, 0.201 ± 0.17; for VSVRYPLNKECFYDCL, “inactive”. For LLVMWWYRLTGPDGVSNWR, the amyloid nucleation score result was “inactive”. With PIPTKLLVLKRQSTMHLDRF, the amyloid nucleation score entry is “inactive”. On to AYSYAYGHCRYGSEVS, for which the amyloid nucleation score result was “inactive”. With LLSHYFHGMCMTHISGIFVM, the amyloid nucleation score entry was “inactive”. For NFLYWHRWVVWSSMSSYRKP the value was -0.348 ± 0.63; for SKKPVEMTRNI, “inactive”; for DCFNNWWVTHYQQINFPTVA, “inactive”.

As for NFCLVRGVNLANPFSNDCKS, the amyloid nucleation score entry is “inactive”. Consider FIKLKGL, for which the amyloid nucleation score result was “inactive”. As to YLWLWASWSWRGNQNKTSWA, the amyloid nucleation score result is “inactive”.

As for VTTIVYDSYCPLPRCWTWVG, the amyloid nucleation score entry was “inactive”.

Take HIKKRYKLLAMLLMSDLR: the amyloid nucleation score result is “inactive”.

In the case of TYVRIGVCGVLWFCTFFTQC, the amyloid nucleation score entry was “inactive”. As to PQTWVTWKIWYLGFGVAVGV, the amyloid nucleation score entry was “inactive”. With LNWVKTYVAYLFFYSISKRC, the amyloid nucleation score entry is “inactive”. The result for SYRKEFSVPMATGDDSTPQH reads “inactive”; that for CYLMYLSEILAYHVATWQAT, “inactive”. TINRHYVTASRYWLPCRRVR: the amyloid nucleation score result is “inactive”. For LYVLWRLGKQCHTFWFFSSI the value was 0.265 ± 0.44.

(Values after the supplement of paper PMC12042874.)
